From publication PMC3814370, “Functional assignment of KEOPS/EKC complex subunits in the biosynthesis of the universal t^6A tRNA modification” (Nucleic Acids Research, 2013) come the findings set out here.

The target of series [1] is Pcc1–Kae1 binary complex from Pyrococcus abyssi (Pyrococcus abyssi) (UniProt Q9V1Z9).
The subject of series [2] is Kae1-Bud32 (Pyrococcus abyssi). Nature of the series: EMSA. The note with it: apparent Kd; retarded bands from 50 nM; EMSA: 10 nM 32P-tRNA, 20 µl binding buffer BB (composition not in material), 15 min at 4 C (Figure 7 legend: room temperature), 10% native gel in 1X TGE at 4 C. A general note: Mobility shift assays separate free from complexed probe on a gel.

Chain of Pcc1–Kae1 binary complex from Pyrococcus abyssi (Pyrococcus abyssi) (Q9V1Z9 whole entry, chain 1 of 2): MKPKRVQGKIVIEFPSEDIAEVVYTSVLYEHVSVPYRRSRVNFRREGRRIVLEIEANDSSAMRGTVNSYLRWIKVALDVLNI
Chain of Pcc1–Kae1 binary complex from Pyrococcus abyssi (Pyrococcus abyssi) (Q9UXT7 whole entry, chain 2 of 2, further chain): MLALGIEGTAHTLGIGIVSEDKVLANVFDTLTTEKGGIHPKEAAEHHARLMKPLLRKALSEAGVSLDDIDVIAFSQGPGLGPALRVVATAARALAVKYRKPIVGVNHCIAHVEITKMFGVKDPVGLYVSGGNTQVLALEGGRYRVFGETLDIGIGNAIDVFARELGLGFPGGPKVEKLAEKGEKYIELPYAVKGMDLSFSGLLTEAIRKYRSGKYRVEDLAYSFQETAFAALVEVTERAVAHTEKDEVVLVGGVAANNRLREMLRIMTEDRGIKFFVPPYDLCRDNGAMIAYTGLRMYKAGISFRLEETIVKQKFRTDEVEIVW

In series [1], “Kae1–Bud32 binary complex from Pyrococcus abyssi (from UniProt Q9UXT7 1-324; Q9UYB9 1-220)” had a t^6A synthesis (14C-L-threonine incorporated into tRNA) by a mix of the two binary complexes, relative to PaKEOPS of 30%.

The substance “Kae1–Bud32–Cgi121 ternary complex from Pyrococcus abyssi (from UniProt Q9UXT7 1-324; Q9UYB9 1-220; Q9UZ62 1-171)” had a t^6A synthesis (14C-L-threonine incorporated into tRNA) after adding Pcc1–Kae1 to the ternary complex, relative to PaKEOPS in series [1] of 36%.

With substrate tRNA (probably Ec_tRNALys), the Kd in series [2] amounted to 2000 nM.
